B1: KL31-261 (antibody, V domains shown)
VH: QVQLVQSGAEVKKPGASVKVSCKASGYTFTDYCIGWIRQAPGQGLEWMGDICPGDVYTNDNEKFKDRATMTADTSTSTAYMELSSLRSEDTAVYYCARGEEQLGLRNAMDYWGQGTLVTVSS
VL: DIVMTQSPDSLAVSLGERATINCQSQSVSTSTYNYMHWYQQKPGQPPKLLIKYASNLESGVPDRFSGSGSGTDFTLTISSLQAEDVATYYCQHSWEIPWTFGGGTKVEIK
notes: Humanized; IgG1m(zf) kappa
B2: KL31-523 (antibody, V domains shown)
VH: QVQLVQSGAEVKKPGASVKVSCKASGYTFTDYCIGWIRQAPGQGLEWMGDICPGDAYTNDNEKFKDRATMTADTSTSTAYMELSSLRSEDTAVYYCARGEEQVGLRNAMDYWGQGTSVTVSS
VL: DIVMTQSPDSLAVSLGERATINCQSQSVSTSTYNYMHWYQQKPGQPPKLLIKYASNLESGVPDRFSGSGSGTDFTLTISSLQAEDVATYYCQHSWEIPWTFGGGTKLEIK
notes: Humanized; IgG1m(zf) kappa
B3: KL31-131 (antibody, V domains shown)
VH: QVQLVQSGAEVKKPGASVKVSCKASGYTFTDYCIGWIRQAPGQGLEWMGDICPGDTYTNDNEKFKDRATMTADTSTSTAYMELSSLRSEDTAVYYCARGEEQLGLRNAMDYWGQGTLVTVSS
VL: EIVLTQSPATLSLSPGERATLSCQSQSVSTSTYNYMHWYQQKPGQAPRLLIKYASNLESGIPDRFSGSGSGTDFTLTISRLEPEDFATYYCQHSWEIPWTFGGGTKVEIK
notes: Humanized; IgG1m(zf) kappa
B4: KL31-600 (antibody, human IgG1, V domains shown)
VH: QVQLQQSGAELVRPGSSVRMSCKAVGYTFTDYCIGWIKQRPGHGLEWIGDICPGDAYTNDNEKFKDKATLTADTSSTTAYMQLSSLTSEDSAIYYCARGEEQVGLRNAMDYWGQGTSVTVSS
VL: DIVLTQSPASLAVSLGQRATISCQSQSVSTSTYNYMHWYQQKPGQPPKLLIKYASNLESGVPARFSGSGSGTDFTLNIHPVEEEDTATYYCQHSWEIPWTFGGGTKLEIK
B5: KL31-275 (antibody, IgG1, V domains shown)
VH: QVQLQQSGAELVRPGSSVRMSCKAVGYTFTDYCIGWIKQRPGHGLEWIGDICPGDAYTNDNEKFKDKATLTADTSSTTAYMQLSSLTSEDSAIYYCARGEEQVGLRNAMDYWGQGTSVTVSS
VL: DIVLTQSPASLAVSLGQRATISCQSQSVSTSTYNYMHWYQQKPGQPPKLLIKYASNLESGVPARFSGSGSGTDFTLNIHPVEEEDTATYYCQHSWEIPWTFGGGTKLEIK
notes: Mouse; IgG1 kappa
B6: KL31-313 (antibody, IgG2a, V domains shown)
VH: QVQLQQSGAELVRPGSSVRMSCKAVGYTFTDYCIGWIKQRPGHGLEWIGDICPGDAYTNDNEKFKDKATLTADTSSTTAYMQLSSLTSEDSAIYYCARGEEQVGLRNAMDYWGQGTSVTVSS
VL: DIVLTQSPASLAVSLGQRATISCQSQSVSTSTYNYMHWYQQKPGQPPKLLIKYASNLESGVPARFSGSGSGTDFTLNIHPVEEEDTATYYCQHSWEIPWTFGGGTKLEIK
notes: Mouse; IgG2a kappa
B7: AB04-160 (antibody, V domains shown)
VH: QVQLVESGGGLVKPGGSLRLSCAASGFTFSDYYMTWIRQAPGKGLEWVSYISGSFRYTNYADSVKGRFTISRDNAKNSLYLQMNSLRDEDTAVYFCARYVYQVVAIGDLWGQGTLVTVSS
VL: DIQMTQSPSSVSASVGDRVTITCRASQGISSWLAWYQQKPGRAPKLLIFAASSLQSGVPSRFSGSGSGTHFTLTISSLQPEDFATYYCQQAKSFPYTFGQGTKLEIK
notes: Human; IgG1m(zf) kappa
B8: AB04-121 (antibody, V domains shown)
VH: QVQLVESGGGLVKPGGSLRLSCAASGFTFSDYYMTWIRQAPGKGLEWVSYISGSNAYTDYADSVKGRFTISRDNAKNSLYLQMNSLRDEDTAVYFCARYVYQVVAIGDYWGQGTLVTVSS
VL: DIQMTQSPSSVSASVGDRVTITCRASQGISSWLAWYQQKPGRAPKLLIFAASSLQSGVPSRFSGSGSGTHFTLTISSLQPEDFATYYCQQAKSFPYTFGQGTKLEIK
notes: Human; IgG1m(zf) kappa

These binders were tested against T1, Human HARS (human, UniProt P12081 1-509, limits assumed) (assay: SPR (ProteOn); HRS protein immobilized, antibody as analyte).
T1 construct: also called human HRS; human histidyl-tRNA synthetase
T1 sequence: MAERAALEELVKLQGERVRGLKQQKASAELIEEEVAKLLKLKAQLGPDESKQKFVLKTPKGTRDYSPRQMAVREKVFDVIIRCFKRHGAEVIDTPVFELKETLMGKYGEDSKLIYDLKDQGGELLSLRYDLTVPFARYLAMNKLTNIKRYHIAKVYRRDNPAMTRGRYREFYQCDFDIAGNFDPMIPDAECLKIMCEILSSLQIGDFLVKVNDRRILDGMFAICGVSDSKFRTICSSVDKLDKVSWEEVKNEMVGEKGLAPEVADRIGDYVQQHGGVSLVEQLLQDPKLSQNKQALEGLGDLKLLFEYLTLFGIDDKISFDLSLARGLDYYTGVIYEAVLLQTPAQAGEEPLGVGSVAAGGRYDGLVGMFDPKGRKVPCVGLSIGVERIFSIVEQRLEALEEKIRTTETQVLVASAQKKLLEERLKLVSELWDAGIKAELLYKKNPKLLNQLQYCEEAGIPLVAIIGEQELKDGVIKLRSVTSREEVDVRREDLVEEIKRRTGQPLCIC
Binder B1 has a Kd of 0.67 nM.
For B2, the Kd was 32.5 nM.
For B3, the Kd was 0.25 nM.
With B4 the Kd was 12.2 nM.
B5 gave a Kd of 6.79 nM.
B6 was tested, and the Kd was 277 nM.
B7 was tested, and the Kd was 0.06 nM.
Work on B8 yielded a Kd of 0.9 nM.

— US20180282402A1 (ATYR PHARMA, published 2018)
